In patent publication US20230250154A1 (CYTONICS, published 2023):

T1: Cathepsin G (UniProt P08311 21-244)
T1 sequence (looked up): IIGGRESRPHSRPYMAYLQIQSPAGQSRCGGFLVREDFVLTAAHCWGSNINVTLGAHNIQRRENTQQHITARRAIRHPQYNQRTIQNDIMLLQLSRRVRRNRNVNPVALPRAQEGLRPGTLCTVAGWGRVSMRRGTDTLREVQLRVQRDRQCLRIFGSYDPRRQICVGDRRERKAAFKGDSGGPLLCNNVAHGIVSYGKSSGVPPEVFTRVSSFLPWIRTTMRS

T2: MMP7 (UniProt P09237 95-267, limits assumed)
T2 sequence (looked up): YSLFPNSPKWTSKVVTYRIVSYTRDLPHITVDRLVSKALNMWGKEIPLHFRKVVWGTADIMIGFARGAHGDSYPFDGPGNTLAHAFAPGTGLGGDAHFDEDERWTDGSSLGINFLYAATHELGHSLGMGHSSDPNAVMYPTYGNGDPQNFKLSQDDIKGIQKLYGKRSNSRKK

T3: ADAMTS5 (human, UniProt Q9UNA0 262-622, limits assumed)
T3 sequence (looked up): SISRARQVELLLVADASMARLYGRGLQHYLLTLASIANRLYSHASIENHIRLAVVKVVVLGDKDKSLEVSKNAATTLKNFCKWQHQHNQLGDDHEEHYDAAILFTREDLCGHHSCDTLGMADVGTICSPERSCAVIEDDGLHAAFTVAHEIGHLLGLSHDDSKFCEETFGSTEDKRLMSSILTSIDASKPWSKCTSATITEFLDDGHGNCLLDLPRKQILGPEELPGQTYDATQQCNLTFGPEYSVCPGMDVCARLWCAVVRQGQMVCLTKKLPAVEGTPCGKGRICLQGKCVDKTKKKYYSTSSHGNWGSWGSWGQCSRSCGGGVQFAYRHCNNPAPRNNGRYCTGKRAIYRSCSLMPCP

T4: MMP2 (human, UniProt P08253 110-660, limits assumed)
T4 sequence (looked up): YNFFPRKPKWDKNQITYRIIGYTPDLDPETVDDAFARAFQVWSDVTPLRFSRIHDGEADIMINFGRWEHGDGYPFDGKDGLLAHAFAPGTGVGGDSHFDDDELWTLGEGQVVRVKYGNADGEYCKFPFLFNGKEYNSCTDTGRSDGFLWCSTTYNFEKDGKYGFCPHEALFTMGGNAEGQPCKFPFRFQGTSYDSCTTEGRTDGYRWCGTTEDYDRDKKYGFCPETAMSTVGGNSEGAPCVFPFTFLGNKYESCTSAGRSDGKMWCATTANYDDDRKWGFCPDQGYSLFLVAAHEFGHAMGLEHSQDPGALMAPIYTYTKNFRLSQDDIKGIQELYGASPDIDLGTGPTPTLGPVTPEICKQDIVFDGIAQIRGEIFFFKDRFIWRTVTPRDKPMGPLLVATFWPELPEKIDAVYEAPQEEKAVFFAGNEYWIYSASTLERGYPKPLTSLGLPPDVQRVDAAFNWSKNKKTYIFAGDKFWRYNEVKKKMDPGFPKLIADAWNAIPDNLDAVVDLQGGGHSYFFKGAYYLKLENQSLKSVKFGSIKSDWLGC

T5: ADAMTS4 (human, UniProt O75173 213-685, limits assumed)
T5 sequence (looked up): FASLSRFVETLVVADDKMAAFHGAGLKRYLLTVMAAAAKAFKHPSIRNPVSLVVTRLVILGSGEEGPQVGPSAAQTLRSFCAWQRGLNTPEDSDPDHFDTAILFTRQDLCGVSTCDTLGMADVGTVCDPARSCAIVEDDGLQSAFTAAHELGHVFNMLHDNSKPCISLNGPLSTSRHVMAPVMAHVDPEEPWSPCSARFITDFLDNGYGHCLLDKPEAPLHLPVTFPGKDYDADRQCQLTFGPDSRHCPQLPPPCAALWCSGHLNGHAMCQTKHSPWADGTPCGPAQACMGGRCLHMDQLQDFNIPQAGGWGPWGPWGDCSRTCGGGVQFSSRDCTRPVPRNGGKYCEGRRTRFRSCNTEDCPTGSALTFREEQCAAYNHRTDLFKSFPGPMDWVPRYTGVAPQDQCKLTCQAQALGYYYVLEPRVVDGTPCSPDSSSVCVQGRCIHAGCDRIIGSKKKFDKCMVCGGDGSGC

T6: MMP1 (human, UniProt P03956 100-469, limits assumed)
T6 sequence (looked up): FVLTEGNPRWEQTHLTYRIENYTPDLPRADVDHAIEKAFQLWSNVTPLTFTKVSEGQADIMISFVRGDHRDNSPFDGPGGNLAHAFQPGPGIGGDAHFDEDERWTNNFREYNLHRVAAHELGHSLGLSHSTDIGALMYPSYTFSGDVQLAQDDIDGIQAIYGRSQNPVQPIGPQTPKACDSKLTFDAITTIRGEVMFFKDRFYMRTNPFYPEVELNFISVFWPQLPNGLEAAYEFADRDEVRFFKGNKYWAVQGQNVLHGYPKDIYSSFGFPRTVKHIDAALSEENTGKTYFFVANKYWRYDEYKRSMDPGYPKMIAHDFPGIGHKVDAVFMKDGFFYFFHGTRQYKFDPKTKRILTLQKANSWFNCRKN


Tests used:
Assay in all cases: cell-based or functional assay
Cathepsin G = molecular target: T1, Cathepsin G
MMP3 = MMP3 (human, UniProt P08254 100-477, limits assumed)
Chain of MMP3 (P08254 100-477 limits assumed): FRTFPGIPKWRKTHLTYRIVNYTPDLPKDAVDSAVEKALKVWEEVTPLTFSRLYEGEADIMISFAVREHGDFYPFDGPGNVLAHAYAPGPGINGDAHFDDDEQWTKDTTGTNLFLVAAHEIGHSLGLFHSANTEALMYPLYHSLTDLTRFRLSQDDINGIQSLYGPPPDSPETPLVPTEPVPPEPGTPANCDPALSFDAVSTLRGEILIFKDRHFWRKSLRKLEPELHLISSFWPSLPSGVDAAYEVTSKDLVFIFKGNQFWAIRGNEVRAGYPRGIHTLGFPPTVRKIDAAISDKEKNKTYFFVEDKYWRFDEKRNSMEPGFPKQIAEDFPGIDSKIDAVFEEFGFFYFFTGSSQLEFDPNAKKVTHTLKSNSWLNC

MMP7 = molecular target: T2, MMP7
MMP8 = MMP8 (human, UniProt P22894 101-467, limits assumed)
Chain of MMP8 (P22894 101-467 limits assumed): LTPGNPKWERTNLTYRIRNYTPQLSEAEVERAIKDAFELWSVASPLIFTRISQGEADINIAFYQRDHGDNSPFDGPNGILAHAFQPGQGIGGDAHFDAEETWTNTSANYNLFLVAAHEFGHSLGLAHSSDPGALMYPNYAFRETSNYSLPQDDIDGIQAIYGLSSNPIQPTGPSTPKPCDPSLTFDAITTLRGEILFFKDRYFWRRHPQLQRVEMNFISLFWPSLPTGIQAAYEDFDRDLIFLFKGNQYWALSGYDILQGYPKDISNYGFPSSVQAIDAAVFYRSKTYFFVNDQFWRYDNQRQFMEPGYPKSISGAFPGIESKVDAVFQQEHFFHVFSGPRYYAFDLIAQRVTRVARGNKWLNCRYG

ADAMTS5 = molecular target: T3, ADAMTS5
MMP2 = molecular target: T4, MMP2
MMP13 = MMP13 (human, UniProt P45452 104-471, limits assumed)
ADAMTS4 = molecular target: T5, ADAMTS4
MMP9 = MMP9 (human, UniProt P14780 107-707, limits assumed)
Chain of MMP9 (P14780 107-707 limits assumed): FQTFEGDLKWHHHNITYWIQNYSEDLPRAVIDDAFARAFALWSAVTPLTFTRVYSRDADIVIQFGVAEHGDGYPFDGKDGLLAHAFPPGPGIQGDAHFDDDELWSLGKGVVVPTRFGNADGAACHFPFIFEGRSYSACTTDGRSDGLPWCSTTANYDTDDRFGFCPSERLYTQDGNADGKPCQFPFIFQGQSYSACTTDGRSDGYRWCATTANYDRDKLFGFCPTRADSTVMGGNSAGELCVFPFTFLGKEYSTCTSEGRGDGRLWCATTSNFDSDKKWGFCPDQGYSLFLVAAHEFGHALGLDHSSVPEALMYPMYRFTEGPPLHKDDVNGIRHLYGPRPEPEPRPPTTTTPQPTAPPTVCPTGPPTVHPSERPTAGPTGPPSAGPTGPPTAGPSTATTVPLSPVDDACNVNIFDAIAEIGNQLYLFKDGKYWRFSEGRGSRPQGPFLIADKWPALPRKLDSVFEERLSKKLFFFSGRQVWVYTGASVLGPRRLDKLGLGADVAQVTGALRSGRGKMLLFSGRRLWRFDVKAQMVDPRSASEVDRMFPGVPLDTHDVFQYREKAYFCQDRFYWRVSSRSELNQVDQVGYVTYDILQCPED

MMP1 = molecular target: T6, MMP1
Elastase = molecular target: Elastase

| Protease Inhibition (% of WT) (Cathepsin G) | Protease Inhibition (% of WT) (MMP3) | Protease Inhibition (% of WT) (MMP7) | Protease Inhibition (% of WT) (MMP8) | Protease Inhibition (% of WT) (ADAMTS5) | Protease Inhibition (% of WT) (MMP2) | Protease Inhibition (% of WT) (MMP13) | Protease Inhibition (% of WT) (ADAMTS4) | Protease Inhibition (% of WT) (MMP9) | Protease Inhibition (% of WT) (MMP1) | Protease Inhibition (% of WT) (Elastase) | Binder |
| --- | --- | --- | --- | --- | --- | --- | --- | --- | --- | --- | --- |
| 105 % of WT | 182 % of WT | 160 % of WT | 54 % of WT | 440 % of WT | 16 % of WT | 72 % of WT | 208 % of WT | 0 % of WT | 108 % of WT | 117 % of WT | Variant A2M, bait region SEQ ID NO 12 (other) SVSGKPQYMVLVPSLLHTETTEKGCVLLSYLNETVTVSASLESVRGNRSLFTDLEAENDVLHCVAFAVPKSSSNEEVMFLTVQVKGPTQEFKKRTTVMVKNEDSLVFVQTDKSIYKPGQTVKFRVVSMDENFHPLNELIPLVYIQDPKGNRIAQWQSFQLEGGLKQFSFPLSSEPFQGSYKVVVQKKSGGRTEHPFTVEEFVLPKFEVQVTVPKIITILEEEMNVSVCGLYTYGKPVPGHVTVSICRKYSDASDCHGEDSQAFCEKFSGQLNSHGCFYQQVKTKVFQLKRKEYEMKLHTEAQIQEEGTVVELTGRQSSEITRTITKLSFVKVDSHFRQGIPFFGQVRLVDGKGVPIPNKVIFIRGNEANYYSNATTDEHGLVQFSINTTNVMGTSLTVRVNYKDRSPCYGYQWVSEEHEEAHHTAYLVFSPSKSFVHLEPMSHELPCGHTQTVQAHYILNGGTLLGLKKLSFYYLIMAKGGIVRTGTHGLLVKQEDMKGHFSISIPVKSDIAPVARLLIYAVLPTGDVIGDSAKYDVENCLANKVDLSFSPSQSLPASHAHLRVTAAPQSVCALRAVDQSVLLMKPDAELSASSVYNLLPEKDLTGFPGPLNDQDDEDCINRHNVYINGITYTPVSSTNEKDMYSFLEDMGLKAFTNSKIRKPKMCPQLEHGPEGEGEGEIPENFEFRGVSEDLVVQISELEGRGSVEEPHTKLRKYFPETWIWDLVVVNSAGVAEVGVTVPDTITEWKAGAFCLSEDAGLGISSTASLRAFQPFFVELTMPYSVIRGEAFTLKATVLNYLPKCIRVSVQLEASPAFLAVPVEKEQAPHCICANGRQTVSWAVTPKSLGNVNFTVSAEALESQELCGTEVPSVPEHGRKDTVIKPLLVEPEGLEKETTFNSLLCPSGGEVSEELSLKLPPNVVEESARASVSVLGDILGSAMQNTQNLLQMPYGCGEQNMVLFAPNIYVLDYLNETQQLTPEIKSKAIGYLNTGYQRQLNYKHYDGSYSTFGERYGRNQGNTWLTAFVLKTFAQARAYIFIDEAHITQALIWLSQRQKDNGCFRSSGSLLNNAIKGGVEDEVTLSAYITIALLEIPLTVTHPVVRNALFCLESAWKTAQEGDHGSHVYTKALLAYAFALAGNQDKRKEVLKSLNEEAVKKDNSVHWERPQKPKAPVGHFYEPQAPSAEVEMTSYVLLAYLTAQPAPTSEDLTSATNIVKWITKQQNAQGGFSSTQDTVVALHALSKYGAATFTRTGKAAQVTIQSSGTFSSKFQVDNNNRLLLQQVSLPELPGEYSMKVTGEGCVYLQTSLKYNILPEKEEFPFALGVQTLPQTCDEPKAHTSFQISLSVSYTGSRSASNMAIVDVKMVSGFIPLKPTVKMLERSNHVSRTEVSSNHVLIYLDKVSNQTLSLFFTVLQDVPVRDLKPAIVKVYDYYETDEFAIAEYNAPCSKDLGNADYKDDDDKGASHHHHHH |
| 134 % of WT | 27 % of WT | 191 % of WT | 38 % of WT | 412 % of WT | 25 % of WT | 128 % of WT | 159 % of WT | 16 % of WT | 111 % of WT | 106 % of WT | Variant A2M, bait region SEQ ID NO 10 (other) SVSGKPQYMVLVPSLLHTETTEKGCVLLSYLNETVTVSASLESVRGNRSLFTDLEAENDVLHCVAFAVPKSSSNEEVMFLTVQVKGPTQEFKKRTTVMVKNEDSLVFVQTDKSIYKPGQTVKFRVVSMDENFHPLNELIPLVYIQDPKGNRIAQWQSFQLEGGLKQFSFPLSSEPFQGSYKVVVQKKSGGRTEHPFTVEEFVLPKFEVQVTVPKIITILEEEMNVSVCGLYTYGKPVPGHVTVSICRKYSDASDCHGEDSQAFCEKFSGQLNSHGCFYQQVKTKVFQLKRKEYEMKLHTEAQIQEEGTVVELTGRQSSEITRTITKLSFVKVDSHFRQGIPFFGQVRLVDGKGVPIPNKVIFIRGNEANYYSNATTDEHGLVQFSINTTNVMGTSLTVRVNYKDRSPCYGYQWVSEEHEEAHHTAYLVFSPSKSFVHLEPMSHELPCGHTQTVQAHYILNGGTLLGLKKLSFYYLIMAKGGIVRTGTHGLLVKQEDMKGHFSISIPVKSDIAPVARLLIYAVLPTGDVIGDSAKYDVENCLANKVDLSFSPSQSLPASHAHLRVTAAPQSVCALRAVDQSVLLMKPDAELSASSVYNLLPEKDLTGFPGPLNDQDDEDCINRHNVYINGITYTPVSSTNEKDMYSFLEDMGLKAFTNSKIRKPKMCPQLEHGPEGEGLGEGIPENFYGVSEDLVVQISELEGRGSVEEPHTKLRKYFPETWIWDLVVVNSAGVAEVGVTVPDTITEWKAGAFCLSEDAGLGISSTASLRAFQPFFVELTMPYSVIRGEAFTLKATVLNYLPKCIRVSVQLEASPAFLAVPVEKEQAPHCICANGRQTVSWAVTPKSLGNVNFTVSAEALESQELCGTEVPSVPEHGRKDTVIKPLLVEPEGLEKETTFNSLLCPSGGEVSEELSLKLPPNVVEESARASVSVLGDILGSAMQNTQNLLQMPYGCGEQNMVLFAPNIYVLDYLNETQQLTPEIKSKAIGYLNTGYQRQLNYKHYDGSYSTFGERYGRNQGNTWLTAFVLKTFAQARAYIFIDEAHITQALIWLSQRQKDNGCFRSSGSLLNNAIKGGVEDEVTLSAYITIALLEIPLTVTHPVVRNALFCLESAWKTAQEGDHGSHVYTKALLAYAFALAGNQDKRKEVLKSLNEEAVKKDNSVHWERPQKPKAPVGHFYEPQAPSAEVEMTSYVLLAYLTAQPAPTSEDLTSATNIVKWITKQQNAQGGFSSTQDTVVALHALSKYGAATFTRTGKAAQVTIQSSGTFSSKFQVDNNNRLLLQQVSLPELPGEYSMKVTGEGCVYLQTSLKYNILPEKEEFPFALGVQTLPQTCDEPKAHTSFQISLSVSYTGSRSASNMAIVDVKMVSGFIPLKPTVKMLERSNHVSRTEVSSNHVLIYLDKVSNQTLSLFFTVLQDVPVRDLKPAIVKVYDYYETDEFAIAEYNAPCSKDLGNADYKDDDDKGASHHHHHH |
